± gives the standard deviation of the averaged measurements.
The sequences below were run on ATP (assay: switch fluorescence ratio, 500 uM ATP over buffer (Cy3 cluster intensity, sum of 5 cycles each) (fold (ratio)); higher = stronger signal-on switching upon ATP binding; sequences stand for … in TCGTCGGCAGCGTCAGATGTGTATAAGAGACAGTTTTTTTTTTTTTTTTTTTTTTTTT…TC). Conditions: aptamer strand: ATP DNA aptamer (quencher-CACCTGGGGGAGTATTGCGGAGGAAGG + anchor), 100 nM annealed; ATP concentration: 500 uM.
Method in brief: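 Imaging in selection buffer was followed by imaging after 15 min with 500 uM ATP at 22 °C, for Cy3-labelled switching-strand clusters annealed to 100 nM quencher-labelled ATP aptamer on a modified Illumina MiSeq flow-cell. Five of these buffer/ATP cycles ran, separated by NaOH stripping and re-annealing. The fluorescence ratio per cluster is summed target-cycle over summed buffer-cycle Cy3 intensity, averaged per switch-domain sequence; clusters outside 100-1000 RFU were removed.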
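Note: ATP exposure 15 min at 22 °C before imaging.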

Row | Sequence | switch fluorescence ratio
1 | AAATTGTCGT | 0.977 ± 0.042
2 | AAATTTACCT | 1.42 ± 0.072
3 | AAATTTATTA | 1.03 ± 0.037
4 | AAATTTATTT | 0.9932 ± 0.0038
5 | AAATTTGAAG | 1.02 ± 0.012
6 | AAATTTGGGT | 1.01 ± 0.013
7 | AAATTTGTGT | 0.999 ± 0.051
8 | AAATTTGTTG | 0.992 ± 0.011
9 | AAATTTTAAT | 0.979 ± 0.04
10 | AAATTTTGGG | 1 ± 0.019
11 | AACAGACCTT | 1.13 ± 0.12
12 | AACAGCAATT | 1.27 ± 0.35
13 | AACAGGGGAG | 1.03 ± 0.03
14 | AACAGGGGGC | 1.04 ± 0.023
15 | AACAGGGTCT | 0.991 ± 0.038
16 | AACAGTGAAA | 1.02 ± 0.02
17 | AACAGTTTTT | 0.989 ± 0.044
18 | AACATATCGG | 1.02 ± 0.029
19 | AACATCGTTT | 1.02 ± 0.019
20 | AACATGGGGA | 0.976 ± 0.025
21 | AACATTATTT | 1.022 ± 0.0014
22 | AACATTGGGG | 1.02 ± 0.024
23 | AACCAATAGC | 1.1 ± 0.035
24 | AACCAGAAAT | 0.992 ± 0.01
25 | AACCAGGACT | 1.02 ± 0.013

Row | Sequence | switch fluorescence ratio
26 | AACCAGTGCG | 1.08 ± 0.032
27 | AACCCAACGA | 1.27 ± 0.025
28 | AACCCATGCT | 1.05 ± 0.064
29 | AACCCCCGTT | 1.07 ± 0.09
30 | AACCCTTTGC | 1.04 ± 0.016
31 | AACCGCGATG | 2.25 ± 0.1
32 | AACCTATGGT | 0.978 ± 0.0042
33 | AACCTCCGTT | 1.71 ± 0.064
34 | AACCTGTCGC | 1.3964 ± 0.0013
35 | AACCTTAGGA | 1.05 ± 0.017
36 | AACCTTATTT | 0.9965 ± 0.0022
37 | AACCTTGACG | 1.07 ± 0.047
38 | AACCTTGGGG | 1.11 ± 0.079
39 | AACGAATTAG | 1.04 ± 0.038
40 | AACGACAATT | 1.118 ± 0.0016
41 | AACGACTTGT | 1.01 ± 0.037
42 | AACGAGAAGC | 0.9895 ± 0.004
43 | AACGCATGTG | 1 ± 0.039
44 | AACGCCTTCG | 1.177 ± 0.011
45 | AACGCGAACG | 1.06 ± 0.016
46 | AACGCGAGTA | 0.986 ± 0.03
47 | AACGCGTGGG | 1.01 ± 0.003
48 | AACGCTGGCG | 0.966 ± 0.028
49 | AACGGACGCT | 1.16 ± 0.064
50 | AACGGACGGG | 1.27 ± 0.095

Row | Sequence | switch fluorescence ratio
51 | AACGGAGAGC | 1.034 ± 0.01
52 | AACGGAGTGC | 1 ± 0.045
53 | AACGGCAGGG | 1 ± 0.024
54 | AACGGCTCTC | 0.988 ± 0.043
55 | AACGGGATTA | 0.987 ± 0.047
56 | AACGGGCTTT | 0.969 ± 0.013
57 | AACGGGGTCT | 0.978 ± 0.011
58 | AACGGGTATG | 1.011 ± 0.004
59 | AACGGTCACA | 1.16 ± 0.021
60 | AACGGTCAGA | 1.02 ± 0.05
61 | AACGGTGGGG | 0.992 ± 0.034
62 | AACGGTTGCG | 0.965 ± 0.016
63 | AACGGTTTAA | 1.05 ± 0.014
64 | AACGTACTTG | 1.54 ± 0.044
65 | AACGTAGCGG | 1.07 ± 0.03
66 | AACGTAGGGA | 1.93 ± 1.2
67 | AACGTAGTCG | 1.031 ± 0.0046
68 | AACGTCTCGA | 1.01 ± 0.025
69 | AACGTGAGTG | 1.02 ± 0.011
70 | AACGTGCCTG | 0.979 ± 0.077
71 | AACGTGCGTG | 0.9973 ± 0.0028
72 | AACGTGTGGG | 0.996 ± 0.1
73 | AACGTTAGGA | 1.03 ± 0.051
74 | AACGTTATAA | 1.05 ± 0.02
75 | AACGTTCATG | 1.02 ± 0.044

Row | Sequence | switch fluorescence ratio
76 | AACGTTTAGG | 1.015 ± 0.0099
77 | AACGTTTTCT | 0.991 ± 0.012
78 | AACTAGAGAC | 0.975 ± 0.01
79 | AACTAGAGGG | 0.98 ± 0.017
80 | AACTATAATG | 0.997 ± 0.044
81 | AACTATGCAG | 1.02 ± 0.017
82 | AACTCGGAAT | 1.03 ± 0.028
83 | AACTCGTGGG | 0.975 ± 0.026
84 | AACTCTAGCA | 1.073 ± 0.0052
85 | AACTCTTAAG | 1.03 ± 0.02
86 | AACTCTTCTT | 1.04 ± 0.035
87 | AACTGAAGTC | 0.976 ± 0.01
88 | AACTGAGATT | 1.02 ± 0.024
89 | AACTGATTTC | 0.963 ± 0.03
90 | AACTGCAACA | 1.22 ± 0.031
91 | AACTGGGGGG | 1 ± 0.045
92 | AACTGTATAT | 1.15 ± 0.019
93 | AACTGTCAGA | 0.9903 ± 0.0036
94 | AACTGTTGTA | 0.986 ± 0.0024
95 | AACTTAGTAT | 1.018 ± 0.01
96 | AACTTATTTT | 1 ± 0.003
97 | AACTTGGCGC | 1.01 ± 0.057
98 | AACTTGGGTG | 1.02 ± 0.035
99 | AACTTTAGGG | 0.997 ± 0.039
100 | AACTTTATGA | 1.02 ± 0.01

Reference: the supplement of paper PMC10126150
